# Legend:
# Experiment in all cases: Y2H (α-galactosidase activity)
# SlTRM17/20a fragment = details: read off a plot
# SlTRM25 fragment = details: parent: est. 4.2; read off a plot
# SlTRM5 fragment = details: read off a plot
# OVATE = details: read off a plot
# SlOFP20 = details: read off a plot
# OVATE^D280R = details: read off a plot
# OVATE D280V = details: read off a plot
# OVATE E299V = details: read off a plot
# SlOFP20^D265R = details: read off a plot
# SlOFP20 D265V = details: read off a plot
# SlOFP20 D284V = details: read off a plot
substance,measurement,setting,value
OVATE D280R,response (milliunits/(ml×cell)),SlTRM17/20a fragment; parent: est. 7.2,0.1
same,response (milliunits/(ml×cell)),SlTRM25 fragment,0.1
same,response (milliunits/(ml×cell)),SlTRM5 fragment; parent: est. 7.1,0.1
OVATE D280V,response (milliunits/(ml×cell)),SlTRM17/20a fragment; parent: est. 7.2,1.6
same,response (milliunits/(ml×cell)),SlTRM25 fragment,0.1
same,response (milliunits/(ml×cell)),SlTRM5 fragment; parent: est. 7.1,0.1
OVATE E299V,response (milliunits/(ml×cell)),SlTRM17/20a fragment; parent: est. 7.2,5
same,response (milliunits/(ml×cell)),SlTRM25 fragment,2.5
same,response (milliunits/(ml×cell)),SlTRM5 fragment; parent: est. 7.1,3.1
SlOFP20 D265R,response (milliunits/(ml×cell)),SlTRM17/20a fragment; parent: est. 7.9,5.3
same,response (milliunits/(ml×cell)),SlTRM25 fragment,0.1
same,response (milliunits/(ml×cell)),SlTRM5 fragment; parent: est. 5.2,0.1
SlOFP20 D265V,response (milliunits/(ml×cell)),SlTRM17/20a fragment; parent: est. 7.9,6
same,response (milliunits/(ml×cell)),SlTRM25 fragment,0.1
same,response (milliunits/(ml×cell)),SlTRM5 fragment; parent: est. 5.2,0.1
SlOFP20 D284V,response (milliunits/(ml×cell)),SlTRM17/20a fragment; parent: est. 7.9,7.2
same,response (milliunits/(ml×cell)),SlTRM25 fragment,0.25
same,response (milliunits/(ml×cell)),SlTRM5 fragment; parent: est. 5.2,2.5
SlTRM5 fragment R374V,response (milliunits/(ml×cell)),OVATE; parent: est. 7.1,4.7
same,response (milliunits/(ml×cell)),SlOFP20; parent: est. 5.2,3.4
SlTRM17/20a fragment K318V,response (milliunits/(ml×cell)),OVATE; parent: est. 7.2,4.2
same,response (milliunits/(ml×cell)),SlOFP20; parent: est. 7.9,4.5
SlTRM25 fragment K327V,response (milliunits/(ml×cell)),OVATE; parent: est. 4.2,2.1
same,response (milliunits/(ml×cell)),SlOFP20; parent: est. 4.2,1.9
m3; m1 SlTRM5:R374V; OVATE:D280R,response (milliunits/(ml×cell)),OVATE^D280R; parent: est. 7.1,0.1
m3; m1 SlTRM5:R374V; OVATE:D280V,response (milliunits/(ml×cell)),OVATE D280V; parent: est. 7.1,0.1
m3; m1 SlTRM5:R374V; OVATE:E299V,response (milliunits/(ml×cell)),OVATE E299V; parent: est. 7.1,3.1
m3; m2 SlTRM5:R374V; SlOFP20:D265R,response (milliunits/(ml×cell)),SlOFP20^D265R; parent: est. 5.2,0.1
m3; m2 SlTRM5:R374V; SlOFP20:D265V,response (milliunits/(ml×cell)),SlOFP20 D265V; parent: est. 5.2,0.1
m3; m2 SlTRM5:R374V; SlOFP20:D284V,response (milliunits/(ml×cell)),SlOFP20 D284V; parent: est. 5.2,2.4
m4; m1 SlTRM17/20a:K318V; OVATE:D280R,response (milliunits/(ml×cell)),OVATE^D280R; parent: est. 7.2,0.25
m4; m1 SlTRM17/20a:K318V; OVATE:D280V,response (milliunits/(ml×cell)),OVATE D280V; parent: est. 7.2,0.9
m4; m1 SlTRM17/20a:K318V; OVATE:E299V,response (milliunits/(ml×cell)),OVATE E299V; parent: est. 7.2,4.1
m4; m2 SlTRM17/20a:K318V; SlOFP20:D265R,response (milliunits/(ml×cell)),SlOFP20^D265R; parent: est. 7.9,3
m4; m2 SlTRM17/20a:K318V; SlOFP20:D265V,response (milliunits/(ml×cell)),SlOFP20 D265V; parent: est. 7.9,3.6
m4; m2 SlTRM17/20a:K318V; SlOFP20:D284V,response (milliunits/(ml×cell)),SlOFP20 D284V; parent: est. 7.9,4.8
m5; m1 SlTRM25:K327V; OVATE:D280R,response (milliunits/(ml×cell)),OVATE^D280R; parent: est. 4.2,0.1
m5; m1 SlTRM25:K327V; OVATE:D280V,response (milliunits/(ml×cell)),OVATE D280V; parent: est. 4.2,0.1
m5; m1 SlTRM25:K327V; OVATE:E299V,response (milliunits/(ml×cell)),OVATE E299V; parent: est. 4.2,2.3
m5; m2 SlTRM25:K327V; SlOFP20:D265R,response (milliunits/(ml×cell)),SlOFP20^D265R; parent: est. 4.2,0.1
m5; m2 SlTRM25:K327V; SlOFP20:D265V,response (milliunits/(ml×cell)),SlOFP20 D265V; parent: est. 4.2,0.1
m5; m2 SlTRM25:K327V; SlOFP20:D284V,response (milliunits/(ml×cell)),SlOFP20 D284V; parent: est. 4.2,0.25

# From publication PMC6226536
